According to the supplement of paper PMC7877785:
± gives the uncertainty stated by the source.

Experiment: self-splicing fitness, log relative to wild type (ln ratio); higher = more splicing; Tetrahymena group I intron in knt gene, E. coli kanamycin selection, DiMSum; sequences stand for … in CUCUCU…GGAGGGAAAAGUUAUCAGGCAUGCACCUGGUAGCUAGUCUUUAAACCAAUAGAUUGCAUCGGUUUAAAAGGCAAGACCGUCAAAUUGCGGGAAAGGGGUCAACAGCCGUUCAGUACCAAGUCUCAGGGGAAACUUUGAGAUGGCCUUGCAAAGGGUAUGGUAAUAAGCUGACGGACAUGGUCCUAACCACGCAGCCAAGUCCUAAGUCAACAGAUCUUCUGUUGAUAUGGAUGCAGUUCACAGACUAAAUGUCGGUCGGGGAAGAUGUAUUCUUCUCAUAAGAUAUAGUCGGACCUCUCCUUAAUGGGAGCUAGCGGAUGAAGUGAUGCAACACUGGAGCCGCUGGGAACUAAUUUGUAUGCGAAAGUAUAUUGAUUAGUUUUGGAGUACUCGUGGUCG
Outline: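 Six replicate transformations of E. coli BL21(DE3) with a pET-22b(+) library were grown overnight at 37°C or 30°C. The library randomised all eight P1ex-region intron nucleotides, the intron lying in the knt kanamycin-resistance gene, and plates were LB agar with or without 25 μg/mL kanamycin plus 100 μg/mL carbenicillin, 50 μM IPTG and 0.2% rhamnose. Pooled colonies were amplicon-sequenced on an Illumina HiSeq 2500, and fitness is the DiMSum error-weighted combination of wild-type-normalised replicate fold changes, kanamycin versus none.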

Sequence	self-splicing fitness (ln) (30 °C)	self-splicing fitness (ln) (37 °C)
UGCUAGCAAUAUUACGAGCC	-0.0254 ± 0.11	-0.681 ± 0.2
CCGGAGCAAUAUUACGGUUG	-1.16 ± 0.14	-1.25 ± 0.16
UCACAGCAAUAUUACGAUUC	-3.61 ± 0.16	-3.05 ± 0.18
GACCAGCAAUAUUACGACAG	-3.85 ± 0.18	-2.22 ± 0.18
CCCGAGCAAUAUUACGGUCA	-4.25 ± 0.46	-2.57 ± 0.26
AUAAAGCAAUAUUACGCUGA	-1.27 ± 0.082	-0.907 ± 0.15
UGCGAGCAAUAUUACGAUUU	-3.11 ± 0.37	-0.802 ± 0.16
GAGCAGCAAUAUUACGAUGU	-3.19 ± 0.15	-1.37 ± 0.11
CCCAAGCAAUAUUACGAGCA	-3.01 ± 0.24	-2.95 ± 0.25
CGACAGCAAUAUUACGGCUC	-2.5 ± 0.11	-1.89 ± 0.14
GGAAAGCAAUAUUACGUAUU	-1.25 ± 0.13	-1.45 ± 0.16
CGCGAGCAAUAUUACGUUAC	-4.07 ± 0.28	-1.78 ± 0.33
ACUCAGCAAUAUUACGUGCG	-0.485 ± 0.063	-0.526 ± 0.078
UUCCAGCAAUAUUACGAGUG	-0.354 ± 0.059	-0.52 ± 0.069
AGCUAGCAAUAUUACGAGUU	-2.58 ± 0.16	-2.45 ± 0.22
GUAUAGCAAUAUUACGGAUG	-2.65 ± 0.39	-1.99 ± 0.25
UAAAAGCAAUAUUACGGAUU	-2.12 ± 0.14	-1.56 ± 0.19
GAGAAGCAAUAUUACGGUUA	-1.13 ± 0.12	-0.315 ± 0.13
GUUAAGCAAUAUUACGCGGG	-2.2 ± 0.12	-1.69 ± 0.16

Sequence	self-splicing fitness (ln) (30 °C)	self-splicing fitness (ln) (37 °C)
CCCUAGCAAUAUUACGUCUC	-3.71 ± 0.41	-2.67 ± 0.27
CAACAGCAAUAUUACGUAAA	-2.42 ± 0.069	-1.91 ± 0.098
UUAGAGCAAUAUUACGUUUA	-2.01 ± 0.13	-0.913 ± 0.15
CCUUAGCAAUAUUACGUACU	-2.32 ± 0.23	-1.99 ± 0.21
UGCGAGCAAUAUUACGUCUG	-1.24 ± 0.1	-1.36 ± 0.13
CGUCAGCAAUAUUACGUCAC	–	-1.42 ± 0.26
AUGCAGCAAUAUUACGACUG	-3.44 ± 0.23	-2.8 ± 0.31
GGCAAGCAAUAUUACGGAUG	-2.34 ± 0.15	-0.798 ± 0.15
GGACAGCAAUAUUACGAAUG	-2.09 ± 0.17	-1.9 ± 0.22
AUAAAGCAAUAUUACGCGGC	-2.79 ± 0.21	-0.109 ± 0.19
UCGGAGCAAUAUUACGUCAA	–	-2.12 ± 0.38
UUGCAGCAAUAUUACGAUCU	-2.34 ± 0.22	-1.78 ± 0.21
CGAGAGCAAUAUUACGUCUC	-3.03 ± 0.22	-3.17 ± 0.35
CAACAGCAAUAUUACGUCGA	-1.37 ± 0.09	-0.379 ± 0.077
UCGGAGCAAUAUUACGAGUG	-2.47 ± 0.18	-2.48 ± 0.19
CUUAAGCAAUAUUACGCGCG	-1.54 ± 0.12	-0.513 ± 0.17
AAGCAGCAAUAUUACGGGAA	-3.05 ± 0.22	-2.15 ± 0.17
UGACAGCAAUAUUACGAUAG	-1.49 ± 0.07	-0.347 ± 0.076
UGUCAGCAAUAUUACGAUAA	-0.114 ± 0.06	0.438 ± 0.074
